Legend:
[1] = molecular target: TMR-labelled wt H4-tail peptide; assay: fluorescence polarisation
[2] = molecular target: TMR-labelled 2RA H4-tail peptide; assay: fluorescence polarisation

Substance	Kd [1]	Kd [2]
wt Acf1 (accessory subunit of human ACF), isolated (from UniProt Q9NRL2 1-1556) (natural protein)	3 nM	41 nM
ΔC-term Acf1 (residues 1423-1556 deleted) (from UniProt Q9NRL2 1-1422) (domain or fragment)	2 nM	
